Where two headings read alike, the source gives them in different places.
Key:
[1] = Stability screen of HetSiFA [^18F]-12 in acetonitrile (RCC by radio-TLC over time); format: physicochemical; details: room temperature, 1.8 mg (9.4 μmol) Et4NHCO3 used for elution
Description: Isotopic exchange reactions were conducted in 1 mL Eppendorf tube containing hetroarylfluorosilanes 1 in dry acetonitrile (3 mM stock solution, 50 μL). […] An aliquot of the crude reaction mixture was spotted on a silica gel coated TLC plate, developed in a glass chamber using [^18F]fluoride Het Si tBu tBu F Het Si tBu tBu ^18F Et4NHCO3 CH3CN, 23° C. 1 [^18F]-1 S15 acetonitrile (100%) or acetonitrile:water (95:5) as the eluent and analyzed by radio-TLC using a miniGITA*TLC scanner. The radiochemical conversion (RCC) was calculated by dividing the integrated area of the ^18F-fluorinated product peak by the total integrated area of all peaks on the TLC and multiplying by 100 to convert to percentage units. Isotopic exchange and purity was confirmed by analytical HPLC by co-injecting with the 19F-reference standard (UV absorbance at 254 nm). An aliquot of the crude reaction mixture (10 μL) was added to the 19F-reference standard (1 mg/mL) in acetonitrile (10 μL) and the sample was injected into the analytical HPLC.
[^18F]TEAF was obtained by eluting fluoride ion with high base or low base, following the protocol described above.

[2] = MicroPET/CT biodistribution of [^18F]-17 in normal mice (ROI quantification); format: in vivo, C57BL6 mice; details: for tissue uptake at 1 h / tissue uptake at 2 h: C57BL/6, mouse; for tissue uptake at 2 h: 2 h post-injection
Description: Micropositron emission tomography-computed tomography (microPET/CT) imaging studies were performed in normal mice to investigate the in vivo stability of the silicon-fluorine bond in the Heteroaromatic silicon fluoride acceptor peptide conjugate, [^18F]-17. Reformulated [^18F]-17 (2.2 MBq) was injected via the tail vein into C57BL/6 mice (n=3), and microPET/CT scans were acquired. […] Alternatively, the GI activity may also be a result of this particular peptide, for which the full cholecystokinin construct plays important roles in stimulating digestion within the GI system.
Animal studies were approved by the UCLA Animal Research Committee and carried out according to the guidelines of the Department of Laboratory Animal Medicine at UCLA. Female C57BL6 mice were injected intravenously via tail vein with approximately 2.2 MBq (60 μCi) of [^18F]-17. Animals were kept warm on heating pads throughout the imaging procedures. At 1 and 2 h after tracer injection, mice were anesthetized with 2% isoflurane in oxygen and placed in dedicated Genisys8 imaging chambers for PET/CT imaging on the Genisys8 PET/CT (Sofie Biosciences). PET scans were acquired for 10 min with an energy window of 150-650 keV reconstructed using ML-EM, followed by CT acquisition. All PET images were corrected for CTbased photon attenuation, detector normalization and radioisotope decay (scatter correction was not applied) and converted to units of percent injected dose per gram (% ID/g). Images were analyzed by drawing regions-of-interest (ROI) in select tissues using AMIDE v1.0.5. See e.g. Loening et al., Mol. Imaging 2003, 3, 131.

CC(C)(C)[Si](F)(c1cc2cccc(C(=O)O)c2s1)C(C)(C)C [[^18F]-12, 2-(di-tertbutylfluorosilyl) benzo[b]thiophene-7-carboxylic acid]
RCC (stability screen) ([1]; 2 min): 95%
RCC (stability screen) ([1]; 5 min): 96%
RCC (stability screen) ([1]; 15 min): 97%
RCC (stability screen) ([1]; 30 min): 97%
RCC (stability screen) ([1]; 60 min): 97%

CSCC[C@H](NC(=O)[C@H](Cc1c[nH]c2ccccc12)NC(=O)CN1CCN(CC(=O)O)CCN(CC(=O)O)CCN(CC(=O)O)CC1)C(=O)N[C@@H](CC(=O)NCCOCCOCCOCCNC(=O)c1cccc2cc([Si](F)(C(C)(C)C)C(C)(C)C)sc12)C(=O)N[C@@H](Cc1ccccc1)C(N)=O [[^18F]-17]
Biodistribution, Muscle ([2]; PET quantification, 1 h post-injection, i.v. tail vein, C57BL6 mice): 0.36 % ID/g
tissue uptake at 1 h ([2]; female, GI tract, iv, 2.2 MBq, total radioactivity, PET quantification, 1 h post-injection, i.v. tail vein, C57BL6 mice, read-out: Biodistribution, GI): 107 ± 24 %ID/g
tissue uptake at 2 h ([2]; female, GI tract, iv, 2.2 MBq, total radioactivity, PET quantification, i.v. tail vein, C57BL6 mice, read-out: Biodistribution, GI): 122 ± 48 %ID/g
tissue uptake at 1 h ([2]; female, bladder, iv, 2.2 MBq, total radioactivity, PET quantification, 1 h post-injection, i.v. tail vein, C57BL6 mice, read-out: Biodistribution, Bladder): 35 ± 12 %ID/g
tissue uptake at 2 h ([2]; female, bladder, iv, 2.2 MBq, total radioactivity, PET quantification, i.v. tail vein, C57BL6 mice, read-out: Biodistribution, Bladder): 30 ± 7 %ID/g
tissue uptake at 1 h ([2]; female, bone (knee), iv, 2.2 MBq, total radioactivity, PET quantification, 1 h post-injection, i.v. tail vein, C57BL6 mice, read-out: Biodistribution, Bone (knee)): 8 ± 0.65 %ID/g
tissue uptake at 2 h ([2]; female, bone (knee), iv, 2.2 MBq, total radioactivity, PET quantification, i.v. tail vein, C57BL6 mice, read-out: Biodistribution, Bone (knee)): 8.2 ± 0.56 %ID/g
tissue uptake at 1 h ([2]; female, brain, iv, 2.2 MBq, total radioactivity, PET quantification, 1 h post-injection, i.v. tail vein, C57BL6 mice, read-out: Biodistribution, Brain): 0.44 ± 0.06 %ID/g
tissue uptake at 2 h ([2]; female, brain, iv, 2.2 MBq, total radioactivity, PET quantification, i.v. tail vein, C57BL6 mice, read-out: Biodistribution, Brain): 0.33 ± 0.03 %ID/g
tissue uptake at 1 h ([2]; female, gallbladder, iv, 2.2 MBq, total radioactivity, PET quantification, 1 h post-injection, i.v. tail vein, C57BL6 mice, read-out: Biodistribution, Gallbladder): 33 ± 14 %ID/g
tissue uptake at 2 h ([2]; female, gallbladder, iv, 2.2 MBq, total radioactivity, PET quantification, i.v. tail vein, C57BL6 mice, read-out: Biodistribution, Gallbladder): 28 ± 9 %ID/g
tissue uptake at 1 h ([2]; female, heart, iv, 2.2 MBq, total radioactivity, PET quantification, 1 h post-injection, i.v. tail vein, C57BL6 mice, read-out: Biodistribution, Heart): 2 ± 0.25 %ID/g
tissue uptake at 2 h ([2]; female, heart, iv, 2.2 MBq, total radioactivity, PET quantification, i.v. tail vein, C57BL6 mice, read-out: Biodistribution, Heart): 1.2 ± 0.26 %ID/g
tissue uptake at 1 h ([2]; female, kidney, iv, 2.2 MBq, total radioactivity, PET quantification, 1 h post-injection, i.v. tail vein, C57BL6 mice, read-out: Biodistribution, Kidney): 2.9 ± 0.62 %ID/g
tissue uptake at 2 h ([2]; female, kidney, iv, 2.2 MBq, total radioactivity, PET quantification, i.v. tail vein, C57BL6 mice, read-out: Biodistribution, Kidney): 2.2 ± 0.38 %ID/g
tissue uptake at 1 h ([2]; female, liver, iv, 2.2 MBq, total radioactivity, PET quantification, 1 h post-injection, i.v. tail vein, C57BL6 mice, read-out: Biodistribution, Liver): 5 ± 0.07 %ID/g
tissue uptake at 2 h ([2]; female, liver, iv, 2.2 MBq, total radioactivity, PET quantification, i.v. tail vein, C57BL6 mice, read-out: Biodistribution, Liver): 2.4 ± 0.47 %ID/g
tissue uptake at 1 h ([2]; female, muscle, iv, 2.2 MBq, total radioactivity, PET quantification, 1 h post-injection, i.v. tail vein, C57BL6 mice, read-out: Biodistribution, Muscle): 0.36 ± 0.06 %ID/g
tissue uptake at 2 h ([2]; female, muscle, iv, 2.2 MBq, total radioactivity, PET quantification, i.v. tail vein, C57BL6 mice, read-out: Biodistribution, Muscle): 0.27 ± 0.11 %ID/g
tissue uptake ([2]; female, mouse, bone, iv, 2.2 MBq, total radioactivity, FIG. 6, time not given, C57BL/6 mice): 8 %ID/g
clearance route ([2]; microPET/CT images, C57BL/6 mice, 2.2 MBq via tail vein): initial clearance of [^18F]-17 via the kidneys, followed by the reabsorption of radiometabolites and the subsequent hepatobiliary clearance
plasma clearance ([2]; microPET/CT, C57BL/6 mice, 2.2 MBq via tail vein): rapid plasma clearance

Reference: US20230106083A1, “SILICON-FLUORIDE HETEROAROMATIC SYSTEMS FOR APPLICATIONS IN POSITRON EMISSION TOMOGRAPHY (PET) MOLECULAR IMAGING” (The Regents of the University of California, priority 2019, published 2023)
